Results: publication PMC6179994, “Structural insights on TRPV5 gating by endogenous modulators” (Nature Communications, 2018)

Assays:
[1] = biological target: the molecule itself; assay: cryo-EM structure; lipid-bound TRPV5 in detergent (DMNG) with 200 µM diC8 PI(4,5)P2; C4 symmetry, 3.9 Å
[2] = biological target: T1, rat calmodulin (CaM), calcium-activated (rat, UniProt P0DP29 1-149); assay: cryo-EM structure; detergent solubilized TRPV5 (DMNG) incubated 1 h with 10 mM CaCl2 and rat CaM at 1:20 (TRPV5 tetramer:CaM), then SEC; map at 4.4 Å without applied symmetry; details: both partners purified
T1 construct: calmodulin, rat; modelled from the N-lobe (residues 6-77) and C-lobe (residues 83-147) of PDB 1CLL; Expressed from the pET 28b vector; The patch clamp experiments used purified CaM from bovine testes bought from Sigma, not this recombinant protein; also called Ca^2+-CaM; source: E. coli Rosetta 2(DE3), purified (phenyl sepharose, AKTA purifier)

- binding result [2]: binds
B1: full-length rabbit TRPV5 (transient receptor potential vanilloid 5) (natural protein, UniProt Q9XSM3 1-730, looked up)
chain: MGACPPKAKGPWAQLQKLLISWPVGEQDWEQYRDRVNMLQQERIRDSPLLQAAKENDLRLLKILLLNQSCDFQQRGAVGETALHVAALYDNLEAATLLMEAAPELAKEPALCEPFVGQTALHIAVMNQNLNLVRALLARGASVSARATGAAFRRSPHNLIYYGEHPLSFAACVGSEEIVRLLIEHGADIRAQDSLGNTVLHILILQPNKTFACQMYNLLLSYDEHSDHLQSLELVPNHQGLTPFKLAGVEGNTVMFQHLMQKRKHVQWTCGPLTSTLYDLTEIDSWGEELSFLELVVSSKKREARQILEQTPVKELVSFKWKKYGRPYFCVLASLYILYMICFTTCCIYRPLKLRDDNRTDPRDITILQQKLLQEAYVTHQDNIRLVGELVTVTGAVIILLLEIPDIFRVGASRYFGQTILGGPFHVIIITYASLVLLTMVMRLTNMNGEVVPLSFALVLGWCSVMYFARGFQMLGPFTIMIQKMIFGDLMRFCWLMAVVILGFASAFHITFQTEDPNNLGEFSDYPTALFSTFELFLTIIDGPANYSVDLPFMYCITYAAFAIIATLLMLNLFIAMMGDTHWRVAQERDELWRAQVVATTVMLERKMPRFLWPRSGICGYEYGLGDRWFLRVENHHDQNPLRVLRYVEAFKCSDKEDGQEQLSEKRPSTVESGMLSRASVAFQTPSLSRTTSQSSNSHRGWEILRRNTLGHLNLGLDLGEGDGEEVYHF
notes: TRPV5, rabbit, full length; tetrameric channel; Eluted from the beads with 1D4 peptide; no removal of the tag is described; source: Saccharomyces cerevisiae, detergent solubilized, purified (1D4 antibody Sepharose beads, SEC on Superose 6)
- stoichiometry N [1]: 4 subunits
